System: RKLF full length (Homo sapiens)
Test: cell_activity
Conditions: BAEC cotransfection, CAT repression

With “CAC-tkCAT reporter (single beta-globin CACCC site)” as the substance, how does the activity (% decrease in promoter activity) read?
Its activity (% decrease in promoter activity) is 90.

— patent publication US5928941
